By Kd is commonly meant the concentration at which binding is half-saturated. A higher Kd goes with lower affinity. What is called stoichiometry N is a count of units in the complex or per binding partner.

Consider twelve molecules from article PMC6823378, “Clathrin light chain A drives selective myosin VI recruitment to clathrin-coated pits under membrane tension” (Nature Communications, 2019).

B1: CLCa full length, bacterially produced (ITC; reconstitution of cages) (natural protein, human, UniProt P09496 1-248, looked up)
chain: MAELDPFGAPAGAPGGPALGNGVAGAGEEDPAAAFLAQQESEIAGIENDEAFAILDGGAPGPQPHGEPPGGPDAVDGVMNGEYYQESNGPTDSYAAISQVDRLQSEPESIRKWREEQMERLEALDANSRKQEAEWKEKAIKELEEWYARQDEQLQKTKANNRVADEAFYKQPFADVIGYVTNINHPCYSLEQAAEEAFVNDIDESSPGTEWERVARLCDFNPKSSKQAKDVSRMRSVLISLKQAPLVH
notes: clathrin light chain A (CLCa), human; Cleavage from GST is told for the cage reconstitution; also called CLCa FL; CLCa WT; source: bacterially produced and cleaved from GST, purified
B2: myosin VI^1050–1131 of the long isoform, cleaved from GST and purified (domain or fragment, human, UniProt Q9UM54 1050-1131, looked up)
chain: RPKMTPEQMAKEMSEFLSRGPAVLATKAAAGTKKYDLSKWKYAELRDTINTSCDIELLAACREEFHRRLKVYHAWKSKNKKR
notes: 15N- or 13C,15N-labelled in some NMR samples; also called Myo6; source: E. coli Rosetta (DE3) or BL21 (DE3), GST fusion cleaved with PreScission Protease, purified (ion exchange or SEC)
B7: myosin VI^998–1131 of the long isoform (myosin VI_(long)), cleaved from GST and purified (domain or fragment, human, UniProt Q9UM54 998-1131, looked up)
chain: QQQAVLEQERRDRELALRIAQSEAELISDEAQADLALRRSLDSYPVSKNDGTRPKMTPEQMAKEMSEFLSRGPAVLATKAAAGTKKYDLSKWKYAELRDTINTSCDIELLAACREEFHRRLKVYHAWKSKNKKR
notes: source: E. coli Rosetta (DE3), GST fusion cleaved with PreScission Protease, purified (ion exchange)

Test [1] addresses myosin VI^1050–1131 of the long isoform, cleaved from GST and purified (UniProt Q9UM54). Put plainly: GST pull-down, Coomassie, band quantitation. The settings on record: parent: est. 23; read off a plot.
Test [2] concerns the target 5-carboxyfluorescein (5-FAM)-conjugated CLCa peptide 46–61 (human) (UniProt P09496). Put plainly: fluorescence polarisation; 20–50 nM 5-FAM-conjugated CLCa peptide titrated with purified myosin VI fragment from ~150 µM, 22 °C, 384-well plate. (In general: Polarisation of emitted light reports the rotation of a fluorescent probe.)
Test [3] deals with T1, myosin VI^998–1131 of the long isoform (myosin VI_(long)), cleaved from GST and purified (human, UniProt Q9UM54 998-1131).
T1 chain: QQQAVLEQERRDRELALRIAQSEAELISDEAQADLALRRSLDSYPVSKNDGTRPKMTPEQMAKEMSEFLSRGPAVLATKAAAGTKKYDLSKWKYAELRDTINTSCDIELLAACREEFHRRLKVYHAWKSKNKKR
Description: FP.

For test [4], the target named is T2, His-Hip1R coiled-coil region (amino acids 346–655) (UniProt O75146 346-655).
T2 construct: also called His-Hip1R^346–655; Hip1R^346–655; source: bacterially purified (pRSF-duet)
T2 sequence (looked up): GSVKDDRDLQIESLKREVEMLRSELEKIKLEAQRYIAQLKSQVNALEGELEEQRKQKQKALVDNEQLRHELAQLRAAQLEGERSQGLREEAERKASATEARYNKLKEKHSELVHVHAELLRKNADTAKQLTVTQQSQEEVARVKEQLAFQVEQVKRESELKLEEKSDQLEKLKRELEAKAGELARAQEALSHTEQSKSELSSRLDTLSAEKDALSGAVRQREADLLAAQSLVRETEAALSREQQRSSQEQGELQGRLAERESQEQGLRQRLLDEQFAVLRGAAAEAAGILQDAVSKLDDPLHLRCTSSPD
Description: ITC; 380 µM CLCa WT or I54D titrated into 20 µM Hip1R^346–655 or myosin VI^1050–1131 in the cell; 20 mM Tris-HCl pH 8.0, 150 mM NaCl, 2.5% glycerol, 25 °C; one-set-of-sites model. The settings on record: both partners purified. A general note: Isothermal titration calorimetry measures the heat released or taken up as one component is titrated into another.

The target in test [5] is B2. The test is described as above. The settings on record: both partners purified.
Test [6] deals with B1. The description is as above. The settings on record: both partners purified.
The target in test [7] is T3, myosin VI^1069–1131 (human, UniProt Q9UM54 1069-1131).
T3 chain: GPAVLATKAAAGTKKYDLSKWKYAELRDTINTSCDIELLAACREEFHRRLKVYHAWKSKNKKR
Description: FP.

Test [8] concerns the target B2. Put plainly: fluorescence polarisation; 20–50 nM 5-FAM-conjugated CLCa peptide titrated with purified myosin VI fragment from ~150 µM, 22 °C, 384-well plate. Particulars: both partners purified.
Test [9] concerns the target B7. The test is described as above. The settings on record: both partners purified.
Test [10] deals with B7. Put plainly: pull-down; GST-CLC proteins (1.5 μM) on glutathione sepharose beads incubated 1 h at 4 °C in JS buffer with cleaved and purified myosin VI fragments; SDS-PAGE, Coomassie. Particulars: both partners purified.
The target of test [11] is B2. Put plainly: NMR structure; complex of myosin VI^1050–1131 and CLCa^46–61, 221 intermolecular NOEs; 10 °C, 20 mM NaPO4 pH 6.5, 50 mM NaCl, 2 mM DTT. Particulars: both partners purified.
In test [12] the target is T4, 5-carboxyfluorescein (5-FAM)-conjugated CLCa peptide 51–61 (human, UniProt P09496 51-61, also: 5-FAM conjugated, site not given here).
T4 construct: clathrin light chain A (CLCa), human, amino acids 51–61; source: synthetic peptide (GenScript)
T4 peptide (looked up): AFAILDGGAPG
Description: fluorescence polarisation; 20–50 nM 5-FAM-conjugated CLCa peptide titrated with purified myosin VI fragment from ~150 µM, 22 °C, 384-well plate. Particulars: both partners purified.

Test [13] deals with T5, 5-carboxyfluorescein (5-FAM)-conjugated CLCa peptide 51–66 (human, UniProt P09496 51-66, also: 5-FAM conjugated, site not given here).
T5 construct: clathrin light chain A (CLCa), human, amino acids 51–66; source: synthetic peptide (GenScript)
T5 peptide (looked up): AFAILDGGAPGPQPHG
Described as above. The settings on record: both partners purified.

Ends that are not written are not given here. * marks the point of attachment. 5FAM = O=C1OC2(c3ccc(O)cc3Oc3cc(O)ccc32)c2ccc(C(=O)*)cc21

myosin VI^1050–1131 of the long isoform, cleaved from GST and purified (UniProt Q9UM54), sequence (Q9UM54 whole entry, looked up, the tested form may be a part, canonical isoform): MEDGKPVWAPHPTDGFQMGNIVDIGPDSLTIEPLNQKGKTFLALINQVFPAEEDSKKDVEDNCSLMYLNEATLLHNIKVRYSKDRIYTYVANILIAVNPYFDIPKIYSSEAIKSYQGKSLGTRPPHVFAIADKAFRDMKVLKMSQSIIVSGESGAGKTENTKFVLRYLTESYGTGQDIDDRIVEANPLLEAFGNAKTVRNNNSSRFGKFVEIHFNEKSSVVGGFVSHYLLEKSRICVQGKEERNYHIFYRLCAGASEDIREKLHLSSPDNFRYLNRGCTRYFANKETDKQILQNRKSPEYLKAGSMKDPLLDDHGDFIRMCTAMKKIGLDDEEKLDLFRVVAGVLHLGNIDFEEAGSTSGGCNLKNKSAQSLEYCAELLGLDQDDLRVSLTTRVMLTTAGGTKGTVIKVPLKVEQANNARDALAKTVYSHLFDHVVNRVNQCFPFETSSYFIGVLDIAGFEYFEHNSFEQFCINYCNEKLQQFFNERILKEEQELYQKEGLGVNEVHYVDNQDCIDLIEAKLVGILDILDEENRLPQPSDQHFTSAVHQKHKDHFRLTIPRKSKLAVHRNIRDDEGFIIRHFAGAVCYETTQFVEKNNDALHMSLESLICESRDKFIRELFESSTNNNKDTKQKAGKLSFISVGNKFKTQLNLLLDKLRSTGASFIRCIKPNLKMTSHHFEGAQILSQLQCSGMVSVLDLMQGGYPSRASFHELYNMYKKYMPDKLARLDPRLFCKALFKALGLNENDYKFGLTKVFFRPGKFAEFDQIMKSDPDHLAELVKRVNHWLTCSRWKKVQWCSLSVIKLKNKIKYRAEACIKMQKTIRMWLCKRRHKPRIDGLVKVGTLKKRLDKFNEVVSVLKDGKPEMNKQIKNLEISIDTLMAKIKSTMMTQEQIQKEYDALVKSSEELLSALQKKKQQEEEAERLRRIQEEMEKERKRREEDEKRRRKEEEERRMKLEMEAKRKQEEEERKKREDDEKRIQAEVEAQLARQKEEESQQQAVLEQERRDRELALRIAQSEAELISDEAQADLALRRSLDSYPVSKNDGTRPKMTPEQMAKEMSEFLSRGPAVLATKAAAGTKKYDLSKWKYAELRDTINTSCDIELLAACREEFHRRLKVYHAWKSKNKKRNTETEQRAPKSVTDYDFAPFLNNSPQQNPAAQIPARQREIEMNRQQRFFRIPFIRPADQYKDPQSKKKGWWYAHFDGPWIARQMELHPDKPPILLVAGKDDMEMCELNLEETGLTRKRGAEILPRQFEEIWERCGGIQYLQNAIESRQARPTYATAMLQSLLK

Regarding GST-CLCa 46–61 WT I54D, the response in test [1] is 3 % of binding.

The molecule “myosin VI^998–1131 of the short isoform (myosin VI_(short)), cleaved from GST and purified (domain or fragment)” gave a Kd in test [2] of 96 µM. This counts as double-digit micromolar.

Turning to “myosin VI Y1121A mutant used for FP analysis (domain or fragment)”, in [2], the difference in binding affinity against the wild type was 2 log-fold.

With AFAILDGGAPGPQPHG (also: 5-FAM conjugated, site not given here) [5-carboxyfluorescein (5-FAM)-conjugated CLCa peptide 51–66], the dissociation constant Kd in test [3] stood at 13.1 µM.

Consider B1, for which, in test [4], the equilibrium dissociation constant (Kd) was 1.37 µM, the dH was -9.7 kcal/mol and the “stoichiometry N” value is 1.15 sites. In [5], the dH is -11.6 kcal/mol and the “stoichiometry N” value stood at 0.79 sites.

B2 registered a Kd in [6] of 0.09 µM.

B3: CLCa I54D full length (ITC) (natural protein, human, UniProt P09496 1-248, looked up)
chain: MAELDPFGAPAGAPGGPALGNGVAGAGEEDPAAAFLAQQESEIAGIENDEAFADLDGGAPGPQPHGEPPGGPDAVDGVMNGEYYQESNGPTDSYAAISQVDRLQSEPESIRKWREEQMERLEALDANSRKQEAEWKEKAIKELEEWYARQDEQLQKTKANNRVADEAFYKQPFADVIGYVTNINHPCYSLEQAAEEAFVNDIDESSPGTEWERVARLCDFNPKSSKQAKDVSRMRSVLISLKQAPLVH
notes: clathrin light chain A (CLCa), human, I54D
Take B3: in test [4], binding was put at a Kd of 0.99 µM, the dH was -8.72 kcal/mol and the “stoichiometry N” value stood at 1.01 sites.

B4: 5-carboxyfluorescein (5-FAM)-conjugated CLCa peptide 46–61 (peptide, UniProt P09496 46-61, looked up)
peptide: 5FAM-IENDEAFAILDGGAPG
notes: clathrin light chain A (CLCa), human, amino acids 46–61; also called CLCa^46–61; source: synthetic peptide (GenScript)
In the case of B4, the Kd was determined as 22 µM in [7], 0.4 µM in [8] and 0.93 µM in test [9].

B5: GST-CLCa fragment of amino acids 47–97 (domain or fragment, human, UniProt P09496 47-97, looked up)
chain: ENDEAFAILDGGAPGPQPHGEPPGGPDAVDGVMNGEYYQESNGPTDSYAAI
notes: clathrin light chain A (CLCa), human, amino acids 47–97; also called CLCa 47–97; source: E. coli Rosetta (DE3), on glutathione-sepharose beads
Take B5: the binding result in test [10] is reported as “binds”.

In test [3], AFAILDGGAPG (also: 5-FAM conjugated, site not given here) [5-carboxyfluorescein (5-FAM)-conjugated CLCa peptide 51–61] came in with a Kd of 22.6 µM. This counts as double-digit micromolar.

B6: CLCa^46–61, recombinant, cleaved from GST (for the NMR structure) (peptide, UniProt P09496 46-61, looked up)
peptide: IENDEAFAILDGGAPG
notes: clathrin light chain A (CLCa), human, amino acids 46–61; 13C,15N-labelled in one of the two samples; source: E. coli BL21 (DE3), GST fusion cleaved with PreScission Protease in the presence of myosin VI, purified (SEC)
Consider B6, for which the binding result in test [11] is “binds”.

With B7, the “fold higher affinity of peptide 46–61 than of this peptide” value in [12] and in test [13] was 10 fold throughout.
